According to the supplement of paper PMC12783771:
± gives the standard deviation of the averaged measurements.

B1: library; a variant is named by its letters at X, in order (parent)
chain: MNIQIGELAKRTACPVVTIRFYEQEGLLPPPGRSRGNFRLYGEEHVERLQFIRHCRSLDMPLSDVRTLLSYRKRPDQDCGEVXMLLDEHIRQVESRIGALLELKHHLVELREACSGARPAQSCGILQXLSXCVCXTRGTTAHXSD

How the values were obtained:
[1] = variants of: B1; experiment: sfGFP reporter fluorescence (15 h) (µM FITC); higher = higher leak; conditions: library round: Round 2; ligand: none
Method: (§1)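 Cell-free biosensing: 1 µL Echo-assembled CFE reactions with linear PbrR variant templates (5 nM) and pPbrR-sfGFP reporter, with 1 µM Pb, 30 µM Zn or no ligand; endpoint sfGFP fluorescence after 15 h at 30 °C calibrated as µM FITC. Round 2 ML-predicted PbrR mutants; up to 3 biological replicates.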

[2] = variants of: B1; experiment: sfGFP reporter fluorescence (15 h) (µM FITC); higher = stronger transcriptional activation; conditions: library round: Round 2
Method: as §1

IGDDR K104V H106A
sfGFP reporter fluorescence [1]: 0.0522 ± 0.00085 | sfGFP reporter fluorescence ([2]; ligand: 1 µM Pb): 0.136 ± 0.0052 | sfGFP reporter fluorescence ([2]; ligand: 30 µM Zn): 0.0496 ± 0.0028

NGDDP P61N L107C C134I
sfGFP reporter fluorescence [1]: 2.22 ± 0.18 | sfGFP reporter fluorescence ([2]; ligand: 1 µM Pb): 2.54 ± 0.38 | sfGFP reporter fluorescence ([2]; ligand: 30 µM Zn): 3.82 ± 0.36

NHDDL E109L I125L
sfGFP reporter fluorescence [1]: 0.048 ± 0.0018 | sfGFP reporter fluorescence ([2]; ligand: 1 µM Pb): 0.044 ± 0.0027 | sfGFP reporter fluorescence ([2]; ligand: 30 µM Zn): 0.047 ± 0.0027

NIDAK L107C G124A
sfGFP reporter fluorescence [1]: 0.814 ± 0.086 | sfGFP reporter fluorescence ([2]; ligand: 1 µM Pb): 2.25 ± 0.053 | sfGFP reporter fluorescence ([2]; ligand: 30 µM Zn): 3.09 ± 0.3

NICDP M60L D64K
sfGFP reporter fluorescence [1]: 2.32 ± 0.17 | sfGFP reporter fluorescence ([2]; ligand: 1 µM Pb): 3.17 ± 0.17 | sfGFP reporter fluorescence ([2]; ligand: 30 µM Zn): 3.67 ± 0.38

TGDDY I125L
sfGFP reporter fluorescence [1]: 0.0486 ± 0.0014 | sfGFP reporter fluorescence ([2]; ligand: 1 µM Pb): 0.0429 ± 0.0049 | sfGFP reporter fluorescence ([2]; ligand: 30 µM Zn): 0.0494 ± 0.0015

NICDP K104R
sfGFP reporter fluorescence [1]: 0.0714 ± 0.0069 | sfGFP reporter fluorescence ([2]; ligand: 1 µM Pb): 0.134 ± 0.0046 | sfGFP reporter fluorescence ([2]; ligand: 30 µM Zn): 0.244 ± 0.034

TGDDP R96A E109A
sfGFP reporter fluorescence [1]: 0.0459 ± 0.0014 | sfGFP reporter fluorescence ([2]; ligand: 1 µM Pb): 0.0588 ± 0.00089 | sfGFP reporter fluorescence ([2]; ligand: 30 µM Zn): 0.144 ± 0.02

TGNRA
sfGFP reporter fluorescence [1]: 0.0608 ± 0.0044 | sfGFP reporter fluorescence ([2]; ligand: 1 µM Pb): 0.107 ± 0.018 | sfGFP reporter fluorescence ([2]; ligand: 30 µM Zn): 0.663 ± 0.059

TGDDT R111V
sfGFP reporter fluorescence [1]: 0.048 ± 0.00067 | sfGFP reporter fluorescence ([2]; ligand: 1 µM Pb): 0.0656 ± 0.0064 | sfGFP reporter fluorescence ([2]; ligand: 30 µM Zn): 0.282 ± 0.033

TGDDT R111I
sfGFP reporter fluorescence [1]: 0.0459 ± 0.00085 | sfGFP reporter fluorescence ([2]; ligand: 1 µM Pb): 0.0556 ± 0.0012 | sfGFP reporter fluorescence ([2]; ligand: 30 µM Zn): 0.201 ± 0.0085

NGDDP M60F P61N D64K K104V
sfGFP reporter fluorescence [1]: 0.395 ± 0.16 | sfGFP reporter fluorescence ([2]; ligand: 1 µM Pb): 0.744 ± 0.16 | sfGFP reporter fluorescence ([2]; ligand: 30 µM Zn): 2.04 ± 0.33

NGDDP M60L P61N D64K K104V L107C
sfGFP reporter fluorescence [1]: 0.716 ± 0.071 | sfGFP reporter fluorescence ([2]; ligand: 1 µM Pb): 2.14 ± 0.18 | sfGFP reporter fluorescence ([2]; ligand: 30 µM Zn): 3.11 ± 0.31

NGTYP V133P
sfGFP reporter fluorescence [1]: 0.0724 ± 0.0067 | sfGFP reporter fluorescence ([2]; ligand: 1 µM Pb): 0.148 ± 0.0095 | sfGFP reporter fluorescence ([2]; ligand: 30 µM Zn): 0.951 ± 0.42

TGDDY V82I L129I
sfGFP reporter fluorescence [1]: 0.0454 ± 0.0012 | sfGFP reporter fluorescence ([2]; ligand: 1 µM Pb): 0.0463 ± 0.00051 | sfGFP reporter fluorescence ([2]; ligand: 30 µM Zn): 0.0601 ± 0.013

NGDDP P61N D64K V108M
sfGFP reporter fluorescence [1]: 0.154 ± 0.014 | sfGFP reporter fluorescence ([2]; ligand: 1 µM Pb): 0.461 ± 0.026 | sfGFP reporter fluorescence ([2]; ligand: 30 µM Zn): 2.33 ± 0.24

NHCDP I125V
sfGFP reporter fluorescence [1]: 0.0459 ± 0.0044 | sfGFP reporter fluorescence ([2]; ligand: 1 µM Pb): 0.0526 ± 0.0016 | sfGFP reporter fluorescence ([2]; ligand: 30 µM Zn): 0.0631 ± 0.0035

THDDW
sfGFP reporter fluorescence [1]: 0.0458 ± 0.0021 | sfGFP reporter fluorescence ([2]; ligand: 1 µM Pb): 0.0682 ± 0.011 | sfGFP reporter fluorescence ([2]; ligand: 30 µM Zn): 0.0889 ± 0.0029

NGSAY L107V
sfGFP reporter fluorescence [1]: 0.12 ± 0.017 | sfGFP reporter fluorescence ([2]; ligand: 1 µM Pb): 0.238 ± 0.042 | sfGFP reporter fluorescence ([2]; ligand: 30 µM Zn): 1.97 ± 0.17

TGDDP L107I E112A
sfGFP reporter fluorescence [1]: 0.0475 ± 0.0007 | sfGFP reporter fluorescence ([2]; ligand: 1 µM Pb): 0.131 ± 0.0047 | sfGFP reporter fluorescence ([2]; ligand: 30 µM Zn): 0.511 ± 0.039

SGDDP L85Y K104V
sfGFP reporter fluorescence [1]: 0.0628 ± 0.0056 | sfGFP reporter fluorescence ([2]; ligand: 1 µM Pb): 0.0671 ± 0.0055 | sfGFP reporter fluorescence ([2]; ligand: 30 µM Zn): 0.248 ± 0.027

NICDP I125L
sfGFP reporter fluorescence [1]: 0.0468 ± 0.0013 | sfGFP reporter fluorescence ([2]; ligand: 1 µM Pb): 0.0446 ± 0.0014 | sfGFP reporter fluorescence ([2]; ligand: 30 µM Zn): 0.0531 ± 0.0013

TGHPY
sfGFP reporter fluorescence [1]: 0.0455 ± 0.0011 | sfGFP reporter fluorescence ([2]; ligand: 1 µM Pb): 0.116 ± 0.0064 | sfGFP reporter fluorescence ([2]; ligand: 30 µM Zn): 0.214 ± 0.017

TGDDP V108L E112F
sfGFP reporter fluorescence [1]: 0.0469 ± 0.0011 | sfGFP reporter fluorescence ([2]; ligand: 1 µM Pb): 0.0496 ± 0.0032 | sfGFP reporter fluorescence ([2]; ligand: 30 µM Zn): 0.0846 ± 0.0051

NHDDW E109L
sfGFP reporter fluorescence [1]: 0.0479 ± 0.00051 | sfGFP reporter fluorescence ([2]; ligand: 1 µM Pb): 0.0832 ± 0.0024 | sfGFP reporter fluorescence ([2]; ligand: 30 µM Zn): 0.399 ± 0.045

NGDPP M84A R111A
sfGFP reporter fluorescence [1]: 0.0671 ± 0.0045 | sfGFP reporter fluorescence ([2]; ligand: 1 µM Pb): 0.0854 ± 0.013 | sfGFP reporter fluorescence ([2]; ligand: 30 µM Zn): 0.919 ± 0.12

TGDDP R96A K104V L107I
sfGFP reporter fluorescence [1]: 0.0526 ± 0.0017 | sfGFP reporter fluorescence ([2]; ligand: 1 µM Pb): 0.0483 ± 0.0032 | sfGFP reporter fluorescence ([2]; ligand: 30 µM Zn): 0.0559 ± 0.002

NIADP L107C
sfGFP reporter fluorescence [1]: 2.06 ± 0.19 | sfGFP reporter fluorescence ([2]; ligand: 1 µM Pb): 3.57 ± 0.56 | sfGFP reporter fluorescence ([2]; ligand: 30 µM Zn): 3.67 ± 0.32

TGDDW L126I
sfGFP reporter fluorescence [1]: 0.0487 ± 0.0018 | sfGFP reporter fluorescence ([2]; ligand: 1 µM Pb): 0.04581 ± 0.00039 | sfGFP reporter fluorescence ([2]; ligand: 30 µM Zn): 0.0773 ± 0.00089

TGHAP
sfGFP reporter fluorescence [1]: 0.0614 ± 0.0048 | sfGFP reporter fluorescence ([2]; ligand: 1 µM Pb): 0.0828 ± 0.0035 | sfGFP reporter fluorescence ([2]; ligand: 30 µM Zn): 0.394 ± 0.061

NGDDP P61N L107C E109H
sfGFP reporter fluorescence [1]: 0.627 ± 0.1 | sfGFP reporter fluorescence ([2]; ligand: 1 µM Pb): 1.51 ± 0.22 | sfGFP reporter fluorescence ([2]; ligand: 30 µM Zn): 2.62 ± 0.31

NHDDA E109L
sfGFP reporter fluorescence [1]: 0.0459 ± 0.0013 | sfGFP reporter fluorescence ([2]; ligand: 1 µM Pb): 0.0809 ± 0.0052 | sfGFP reporter fluorescence ([2]; ligand: 30 µM Zn): 0.343 ± 0.014

TGDDP V82I L85K
sfGFP reporter fluorescence [1]: 0.0407 ± 0.0021 | sfGFP reporter fluorescence ([2]; ligand: 1 µM Pb): 0.0368 ± 0.00078 | sfGFP reporter fluorescence ([2]; ligand: 30 µM Zn): 0.0458 ± 0.0007

NGDDP P61N D64T E112V
sfGFP reporter fluorescence [1]: 0.117 ± 0.013 | sfGFP reporter fluorescence ([2]; ligand: 1 µM Pb): 0.294 ± 0.026 | sfGFP reporter fluorescence ([2]; ligand: 30 µM Zn): 2.13 ± 0.17

NGDDP M60L P61N D64N
sfGFP reporter fluorescence [1]: 0.291 ± 0.025 | sfGFP reporter fluorescence ([2]; ligand: 1 µM Pb): 0.582 ± 0.11 | sfGFP reporter fluorescence ([2]; ligand: 30 µM Zn): 2.53 ± 0.24

TGDRP V108L
sfGFP reporter fluorescence [1]: 0.0448 ± 0.0017 | sfGFP reporter fluorescence ([2]; ligand: 1 µM Pb): 0.0788 ± 0.0022 | sfGFP reporter fluorescence ([2]; ligand: 30 µM Zn): 0.327 ± 0.012

NGDDP P61N D64K K104M L107C
sfGFP reporter fluorescence [1]: 0.791 ± 0.061 | sfGFP reporter fluorescence ([2]; ligand: 1 µM Pb): 1.74 ± 0.2 | sfGFP reporter fluorescence ([2]; ligand: 30 µM Zn): 2.52 ± 0.35

NGDRP P61N D64A
sfGFP reporter fluorescence [1]: 0.111 ± 0.007 | sfGFP reporter fluorescence ([2]; ligand: 1 µM Pb): 0.221 ± 0.0096 | sfGFP reporter fluorescence ([2]; ligand: 30 µM Zn): 1.54 ± 0.25

NGDDP M60L D64K E81A
sfGFP reporter fluorescence [1]: 1.03 ± 0.075 | sfGFP reporter fluorescence ([2]; ligand: 1 µM Pb): 2.19 ± 0.059 | sfGFP reporter fluorescence ([2]; ligand: 30 µM Zn): 3.74 ± 0.22

NGDDR V108L T139A
sfGFP reporter fluorescence [1]: 0.0498 ± 0.0012 | sfGFP reporter fluorescence ([2]; ligand: 1 µM Pb): 0.068 ± 0.0054 | sfGFP reporter fluorescence ([2]; ligand: 30 µM Zn): 0.809 ± 0.081

NHEDW
sfGFP reporter fluorescence [1]: 0.0563 ± 0.0014 | sfGFP reporter fluorescence ([2]; ligand: 1 µM Pb): 0.119 ± 0.014 | sfGFP reporter fluorescence ([2]; ligand: 30 µM Zn): 0.842 ± 0.068

NGDDW L110I S115G
sfGFP reporter fluorescence [1]: 0.0528 ± 0.0019 | sfGFP reporter fluorescence ([2]; ligand: 1 µM Pb): 0.0476 ± 0.0019 | sfGFP reporter fluorescence ([2]; ligand: 30 µM Zn): 0.325 ± 0.019

NGHAY
sfGFP reporter fluorescence [1]: 0.0533 ± 0.003 | sfGFP reporter fluorescence ([2]; ligand: 1 µM Pb): 0.0816 ± 0.0062 | sfGFP reporter fluorescence ([2]; ligand: 30 µM Zn): 0.791 ± 0.037

TGNDP I90L
sfGFP reporter fluorescence [1]: 0.0469 ± 0.0017 | sfGFP reporter fluorescence ([2]; ligand: 1 µM Pb): 0.0573 ± 0.0011 | sfGFP reporter fluorescence ([2]; ligand: 30 µM Zn): 0.192 ± 0.014

NGDDP D87E S95A K104V R111A
sfGFP reporter fluorescence [1]: 0.0648 ± 0.0053 | sfGFP reporter fluorescence ([2]; ligand: 1 µM Pb): 0.0918 ± 0.0068 | sfGFP reporter fluorescence ([2]; ligand: 30 µM Zn): 0.74 ± 0.092
